# Reference: article PMC4549621, “Molecular basis for mid-region amyloid-β capture by leading Alzheimer's disease immunotherapies” (Scientific Reports, 2015)
# T1: amyloid-β peptide residues 12–28 (Aβ12–28), wild type
# T1 construct: cut product of the amyloid precursor protein; numbers count on: the Aβ peptide (Asp1 of Aβ); also called Aβ peptide; mid-region of the Aβ peptide; source: bought: Anaspec (95% purity)
# T1 chain: VHHQKLVFFAEDVGSNK
# Target: T1, amyloid-β peptide residues 12–28 …
# Test: crystal structure; Fab:Aβ12–28 mixed at molar ratio 1:2, dialysed in 10 mM HEPES pH 7.5; crystals from 16% w/v PEG 3350, 50 mM sodium citrate pH 4, 295 K; 2.4 Å, two complexes in the asymmetric unit
# Settings: both partners purified
binder,measurement,value
"solanezumab Fab fragment (recombinant, Asn55(H2)Ser) (Fab, V domains shown, Fab heavy chain of solanezumab; glycosylation site removed by Asn55(H2)Ser; Fab light chain of solanezumab; Parent antibody is IgG1; only the Fab portion was made; source: FreeStyle 293-F cells, co-transfected, purified from supernatant (Ni-NTA, SEC)) VH: EVQLVESGGGLVQPGGSLRLSCAASGFTFSRYSMSWVRQAPGKGLELVAQINSVGSSTYYPDTVKGRFTISRDNAKNTLYLQMNSLRAEDTAVYYCASGDYWGQGTLVTVSS VL: DVVMTQSPLSLPVTLGQPASISCRSSQSLIYSDGNAYLHWFLQKPGQSPRLLIYKVSNRFSGVPDRFSGSGSGTDFTLKISRVEAEDVGVYYCSQSTHVPWTFGQGTKVEIK",binding result,binds
